{"source": "patent US20230183318A1", "about": "(KOREA UNIVERSITY RESEARCH AND BUSINESS FOUNDATION, published 2023)", "binders": {"B1": {"name": "aglycosylated PD-1 variant Q12, displayed on E. coli spheroplasts (receptor)", "chain": "LDSPDRPLDPPTISPALLVVTEGDQATFTCSFSQTSKSFVLNWYRISPSQQTDKLAAFPEDRSQPGQDTRFRVTQLPNGRDFHMSVVRARRQDSGTYLCVAISLAPKVQIKESLRAELRVTERRAEVPTAHPSPSPRPACQFQ", "notes": "Single clone of the final sorting round; not shown: NlpA leader/anchor of the pMopac12-NlpA-FLAG vector; FLAG tag"}, "B2": {"name": "aglycosylated PD-1 variant Q10, displayed on E. coli spheroplasts (receptor)", "chain": "B1 chain with L8W, D9N, F32L, K37E, T52M, V87D, T96S, C140G", "notes": "as for B1"}, "B3": {"name": "aglycosylated PD-1 variant Q33, displayed on E. coli spheroplasts (receptor)", "chain": "B1 chain with L8W, D9N, Q34R, K37E, R88G, R90Q, C140G", "notes": "as for B1"}, "B4": {"name": "aglycosylated PD-1 variant Q18, displayed on E. coli spheroplasts (receptor)", "chain": "LDSPDRPWNPPTISPALLVVTEGDQATFTCGLPQTSESFVLNWYRIGPSQQMDKLAAFPEDRSQPGQDTRFRVTQLPNGRDFHMSVVRARRQDSGTYLCVAISLAPKVQIKESLRAELRVTERRAEVRTAHPSPSPRSAGQFQ", "notes": "as for B1"}, "B5": {"name": "aglycosylated PD-1 variant Q-IITV (F13I, N25Q, N34Q, M46I, N50Q, C69T, N92Q, G100V), displayed on E. coli spheroplasts (receptor)", "chain": "B1 chain with L8W, D9N, K37E, V108A, C140G", "notes": "pMopac12-N1pA-PD1_Q-IITV-FLAG; not shown: NlpA leader/anchor of the pMopac12-NlpA-FLAG vector; FLAG tag"}, "B6": {"name": "PD-1 variant N-IITV (F13I, M46I, C69T, G100V), displayed on E. coli spheroplasts (receptor)", "chain": "B1 chain with L8W, D9N, Q25N, Q34N, K37E, Q50N, Q92N, V108A, C140G", "notes": "also called N-IIITV; PD1_N-IITV; not shown: NlpA leader/anchor of the pMopac12-NlpA-FLAG vector; FLAG tag"}}, "note": "Numbering of substitutions follows the chain as printed. Names may count otherwise."}
{"molecular_target": "T1, dimeric human PD-L1 (PD-L1-Fc), Alexa-488 labelled (human, UniProt Q9NZQ7 19-238, Alexa-488 fluorescent label (sites not given))", "T1 construct": "also called dimeric PD-L1-Fc-Alexa488 probe; dimeric PD-L1-Alexa488 probe; not shown: Fc domain of antibody IgG at the C-terminus; GS linker between PD-L1 and Fc", "T1 sequence (Q9NZQ7 19-238)": "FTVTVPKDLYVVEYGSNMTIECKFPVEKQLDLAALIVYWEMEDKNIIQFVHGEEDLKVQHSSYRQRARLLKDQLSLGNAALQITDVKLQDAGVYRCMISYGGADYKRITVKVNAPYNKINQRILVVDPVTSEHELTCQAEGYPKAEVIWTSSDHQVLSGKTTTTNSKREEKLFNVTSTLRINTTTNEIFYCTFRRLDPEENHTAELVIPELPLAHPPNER", "experiment": "flow cytometry of E. coli spheroplasts displaying single clones, fluorescent PD-L1 probe", "method": "Single colonies at the final round were incubated like Examples above to overexpress the protein and recover E. coli, respectively, and the peptidoglycan layer was removed and the spheroplasts were fluorescent-labeled, and then the binding ability to PD-L1 was analyzed by measuring the fluorescence signal values using FACSCalibur equipment."}
{"binder": "B1", "binding result": "binds"}
{"binder": "B2", "binding result": "binds"}
{"binder": "B3", "binding result": "binds"}
{"binder": "B4", "binding result": "binds"}
{"molecular_target": "T1, dimeric human PD-L1 (PD-L1-Fc), …", "experiment": "flow cytometry of E. coli spheroplasts displaying the variant, 50 nM dimeric PD-L1-Fc-Alexa488", "experimental": "In order to remove the residual medium, the cells put in the e-tube were resuspended using 1 ml of 10 mM Tris-HCl (pH 8.0) and centrifuged at 13,500 rpm for 1 minute, and then washed twice. The cells were resuspended using 1 ml of an STE [0.5 M sucrose, 10 mM Tris-HCl, 10 mM EDTA (pH 8.0)] solution and rotated at 37° C. for 30 minutes to remove extracellular membrane and then centrifuged at 13,500 rpm for 1 minute to collect E. coli and then a supernatant was removed. The centrifuged E. coli was resuspended in 1 ml of Solution A [0.5 M sucrose, 20 mM MgCl₂, 10 mM MOPS pH 6.8] and then centrifuged at 13,500 rpm for 1 minute. The centrifuged E. coli was resuspended by adding 1 ml of a solution mixed with 1 ml of Solution A and 20 μl of a 50 mg/ml lysozyme solution, and then rotated at 37° C. for 15 minutes to remove a peptidoglycan layer. After centrifugation, the supematant was removed and the centrifuged E. coli was resuspended with 1 ml of PBS, taken to 300 μl, added with 700 μl of PBS and a 50 nM dimeric PD-L1-Fc-Alexa488 probe, and rotated at room temperature to label spheroplasts with a fluorescent probe. […] The centrifuged E. coli was resuspended in 1 ml of PBS, and then binding ability to PD-L1 was analyzed using Calibur (BD Biosciences) equipment, respectively."}
{"binder": "B5", "binding result": "binds"}
{"binder": "B6", "binding result": "binds"}
